For experiment [1], the target named is T1, human ZcytoR21x2 (human, UniProt Q8NFR9 24-667).
T1 construct: also called hcytor21x2
T1 sequence: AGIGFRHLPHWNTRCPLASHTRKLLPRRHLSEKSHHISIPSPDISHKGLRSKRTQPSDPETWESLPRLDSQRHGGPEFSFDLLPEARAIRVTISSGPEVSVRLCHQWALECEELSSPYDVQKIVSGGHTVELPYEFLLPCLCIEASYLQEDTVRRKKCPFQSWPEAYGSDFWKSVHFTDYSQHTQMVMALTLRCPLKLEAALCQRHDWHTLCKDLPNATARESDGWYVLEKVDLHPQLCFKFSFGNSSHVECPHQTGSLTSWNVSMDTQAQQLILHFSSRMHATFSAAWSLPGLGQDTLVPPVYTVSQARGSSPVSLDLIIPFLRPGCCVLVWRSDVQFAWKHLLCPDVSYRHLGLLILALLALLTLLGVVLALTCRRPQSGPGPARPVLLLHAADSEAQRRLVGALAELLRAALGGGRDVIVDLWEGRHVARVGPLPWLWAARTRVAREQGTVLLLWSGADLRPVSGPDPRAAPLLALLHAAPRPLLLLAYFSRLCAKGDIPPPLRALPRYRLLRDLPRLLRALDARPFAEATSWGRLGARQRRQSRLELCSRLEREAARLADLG
Nature of the experiment: flow cytometry, biotinylated ligand + streptavidin-PE on stably transfected BHK cells.

The target of experiment [2] is T2, human ZcytoR21x1 (human, UniProt Q8NFR9 24-667).
T2 construct: also called hcytor21x1; IL-17RE
T2 sequence: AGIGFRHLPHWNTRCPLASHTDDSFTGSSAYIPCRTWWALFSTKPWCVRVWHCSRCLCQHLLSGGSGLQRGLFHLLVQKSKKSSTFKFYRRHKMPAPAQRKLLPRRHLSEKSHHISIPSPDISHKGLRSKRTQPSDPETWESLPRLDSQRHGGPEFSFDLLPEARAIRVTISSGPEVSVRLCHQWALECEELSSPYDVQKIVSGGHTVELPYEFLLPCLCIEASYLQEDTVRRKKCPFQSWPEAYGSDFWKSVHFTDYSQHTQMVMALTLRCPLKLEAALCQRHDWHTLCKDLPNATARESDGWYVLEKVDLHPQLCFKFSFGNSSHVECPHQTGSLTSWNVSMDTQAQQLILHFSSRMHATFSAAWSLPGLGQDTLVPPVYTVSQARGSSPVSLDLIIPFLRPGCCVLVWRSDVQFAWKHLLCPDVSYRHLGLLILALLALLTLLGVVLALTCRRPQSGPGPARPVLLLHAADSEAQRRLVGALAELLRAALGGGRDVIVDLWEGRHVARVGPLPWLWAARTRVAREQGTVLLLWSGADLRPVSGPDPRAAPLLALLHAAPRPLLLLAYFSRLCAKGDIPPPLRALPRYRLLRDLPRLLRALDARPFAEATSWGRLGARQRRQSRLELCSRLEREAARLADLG
Described as above.

In experiment [3] the target is T1, human ZcytoR21x2. Briefly: flow cytometry, biotinylated IL-17C (1 ug/ml) + streptavidin-PE on stably transfected BHK cells. The protocol:
(§1) BHK cells stably transfected with human and mouse ZcytoR21 splice variants were plated and grown to confluency in T-75 flasks. Cells were lifted off using a non-protease reagent such as Versene (Invitrogen 15040-066), pelleted, and resuspended in a staining reagent (HBSS+1% BSA+0.1% NaAzide+10 mM HEPES) at 2×10e7 cells/ml and aliquoted to a 96-well Costar plate. IL-17C that has been labeled with biotin was independently added to cells at a concentration of 1 ug/ml. The cell/ligand mixture can be incubated for 1 hr at 4 degrees. The wells were washed 1× in staining reagent, and incubated in a secondary reagent containing staining reagent plus Streptavidin-PE (BD Pharmingen 554061) at a 1:100 ratio. The wells were incubated at 4° C. in the dark for 1 hr, followed by a 2× wash in staining media. The cells were then resuspended in a 1:1 mixture of staining media and Cytofix (BD Bioscience 554655) and incubated 10 minutes at RT. The cells were analysed by Flow Cytometry and by gating on the PE positive events for cells that bound IL-17C.

A further experiment has as its target T3, human ZcytoR21x13 (human, UniProt Q8NFR9 24-667).
T3 construct: also called hcytor21x13
T3 sequence: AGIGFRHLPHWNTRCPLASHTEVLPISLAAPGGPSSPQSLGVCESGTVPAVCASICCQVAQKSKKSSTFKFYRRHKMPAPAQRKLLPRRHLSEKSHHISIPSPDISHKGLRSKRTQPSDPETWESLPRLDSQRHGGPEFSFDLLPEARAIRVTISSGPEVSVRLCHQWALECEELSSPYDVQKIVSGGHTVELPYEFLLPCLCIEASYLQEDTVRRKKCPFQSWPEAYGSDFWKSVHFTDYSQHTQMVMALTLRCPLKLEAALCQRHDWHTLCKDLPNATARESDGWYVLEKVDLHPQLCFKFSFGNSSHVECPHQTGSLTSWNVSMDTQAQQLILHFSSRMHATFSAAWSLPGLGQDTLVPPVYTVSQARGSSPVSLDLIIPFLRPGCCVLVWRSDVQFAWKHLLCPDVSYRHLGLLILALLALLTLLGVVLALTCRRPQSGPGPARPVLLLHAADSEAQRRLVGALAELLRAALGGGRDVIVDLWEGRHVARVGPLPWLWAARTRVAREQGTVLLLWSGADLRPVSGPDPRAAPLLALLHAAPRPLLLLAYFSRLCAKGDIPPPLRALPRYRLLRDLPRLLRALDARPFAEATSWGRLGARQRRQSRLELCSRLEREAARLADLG
The description is as above. Here is the method: as §1

For experiment [4], the target named is T2, human ZcytoR21x1. The experiment is described as above. Here is the method:
as §1

The target of the next experiment is T4, murine ZcytoR21x6 (mouse, UniProt Q8BH06 24-637).
T4 construct: also called mouse ZcytoR21x6; mcytor21x6
T4 sequence: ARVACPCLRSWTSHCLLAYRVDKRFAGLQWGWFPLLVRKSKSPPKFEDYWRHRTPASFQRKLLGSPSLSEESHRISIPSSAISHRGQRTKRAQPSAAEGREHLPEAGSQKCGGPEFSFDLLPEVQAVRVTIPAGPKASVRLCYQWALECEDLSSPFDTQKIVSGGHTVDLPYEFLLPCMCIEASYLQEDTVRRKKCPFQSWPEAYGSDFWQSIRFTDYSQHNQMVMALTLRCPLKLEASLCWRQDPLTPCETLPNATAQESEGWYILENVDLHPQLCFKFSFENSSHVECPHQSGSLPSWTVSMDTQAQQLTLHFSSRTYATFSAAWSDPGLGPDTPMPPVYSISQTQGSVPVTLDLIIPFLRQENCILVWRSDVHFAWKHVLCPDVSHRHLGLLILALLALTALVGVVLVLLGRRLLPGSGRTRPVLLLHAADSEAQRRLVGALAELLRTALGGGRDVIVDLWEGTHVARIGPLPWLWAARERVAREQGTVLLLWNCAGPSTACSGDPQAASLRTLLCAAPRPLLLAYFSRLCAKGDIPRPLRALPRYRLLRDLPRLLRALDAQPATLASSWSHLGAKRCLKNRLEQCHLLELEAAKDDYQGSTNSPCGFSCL
The description is as above. Here is the method: as §1

Another experiment addresses T5, human ZcytoR21x6 (human, UniProt Q8NFR9 24-667).
T5 construct: also called hcytor21x6
T5 sequence: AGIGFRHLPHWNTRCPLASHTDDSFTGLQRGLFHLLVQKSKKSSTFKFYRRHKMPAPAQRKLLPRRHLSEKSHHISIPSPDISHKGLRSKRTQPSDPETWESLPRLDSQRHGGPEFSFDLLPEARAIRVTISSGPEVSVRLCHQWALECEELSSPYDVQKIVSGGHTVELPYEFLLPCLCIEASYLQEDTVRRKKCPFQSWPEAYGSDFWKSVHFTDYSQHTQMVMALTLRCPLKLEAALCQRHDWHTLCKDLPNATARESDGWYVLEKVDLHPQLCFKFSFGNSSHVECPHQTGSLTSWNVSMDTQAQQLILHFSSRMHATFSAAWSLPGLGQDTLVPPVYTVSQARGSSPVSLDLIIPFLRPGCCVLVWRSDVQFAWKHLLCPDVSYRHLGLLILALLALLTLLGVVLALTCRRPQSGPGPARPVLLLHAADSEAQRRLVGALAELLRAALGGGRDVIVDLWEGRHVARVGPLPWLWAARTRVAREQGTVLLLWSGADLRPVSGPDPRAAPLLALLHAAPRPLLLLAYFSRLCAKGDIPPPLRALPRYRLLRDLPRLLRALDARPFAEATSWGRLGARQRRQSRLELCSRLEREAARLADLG
Described as above. The protocol: as §1

B1: human IL-17B (biotinylated) (ligand, UniProt Q9UHF5 21-180, looked up)
chain: QPRSPKSKRKGQGRPGPLAPGPHQVPLDLVSRMKPYARMEEYERNIEEMVAQLRNSSELAQRKCEVNLQLWMSNKRSLSPWGYSINHDPSRIPVDLPEARCLCLGCVNPFTMQEDRSMVSVPVFSQVPVRRRLCPPPPRTGPCRQRAVMETIAVGCTCIF
modifications: biotin label (sites not given)
Consider B1, for which the binding result with human ZcytoR21x2 [1] and in the experiment with human ZcytoR21x1 [2] was “no binding” each time.

B2: murine IL-17C (ligand)
chain: DPPSWGKPRSHRTLRCYSAEELSHGQAPPHLLTRSARWEQALPVALVASLEATGHRRQHEGPLAGTQCPVLRPEEVLEADTHERSISPWRYRIDTDENRYPQKLAVAECLCRGCINAKTGRETAALNSVQLLQSLLVLRRQPCSRDGTADPTPGSFAFHTEFIRVPVGCTCVLPRSTQ
modifications: biotin label in the binding assays (sites not given); unlabelled in the signalling assays
notes: also called mouse IL-17C; IL-17CmCH6
B2: the binding result with human ZcytoR21x2 [3], in the experiment with human ZcytoR21x13, with human ZcytoR21x1 [4], in the experiment with murine ZcytoR21x6 and in the experiment with human ZcytoR21x6 was “binds” in each case.

B3: human IL-17F (biotinylated) (ligand, UniProt Q96PD4 31-163, looked up)
chain: RKIPKVGHTFFQKPESCPPVPGGSMKLDIGIINENQRVSMSRNIESRSTSPWNYTVTWDPNRYPSEVVQAQCRNLGCINAQGKEDISMNSVPIQQETLVVRRKHQGCSVSFQLEKVLVTVGCTCVTPVIHHVQ
modifications: biotin label (sites not given)
For B3, the binding result with human ZcytoR21x2 [1] and with human ZcytoR21x1 [2] was “no binding” throughout.

B4: human IL-17D (biotinylated) (ligand, UniProt Q8TAD2 18-202, looked up)
chain: APRAGRRPARPRGCADRPEELLEQLYGRLAAGVLSAFHHTLQLGPREQARNASCPAGGRPADRRFRPPTNLRSVSPWAYRISYDPARYPRYLPEAYCLCRGCLTGLFGEEDVRFRSAPVYMPTVVLRRTPACAGGRSVYTEAYVTIPVGCTCVPEPEKDADSINSSIDKQGAKLLLGPNDAPAGP
modifications: biotin label (sites not given)
On to B4, for which the binding result with human ZcytoR21x2 [1] and with human ZcytoR21x1 [2] was “no binding” throughout.

These data come from patent US20060142192A1 (ZymoGenetics, published 2006).
